Laboratory results from paper PMC13360575.

Assays:
chicken IgY (chicken) [1] = experiment: BLI; Octet, SAX (streptavidin) biosensors; Fabs at multiple concentrations; KD from a kinetic 1:1 model, global fits (R^2 > 0.98); as described previously (ref. 7)
chicken IgY (chicken) [2] = experiment: BLI; Octet, SAX (streptavidin) biosensors; recombinant Fabs against IgY; KD from a kinetic 1:1 model, global fit over multiple concentrations (partial fits averaged for 3 low-affinity Fabs)

| Binder | Kd (chicken IgY (chicken) [1]) [nM] | Kd (chicken IgY (chicken) [2]) [nM] | koff (chicken IgY (chicken) [2]) [s⁻¹] | kon (chicken IgY (chicken) [2]) [M⁻¹ s⁻¹] |
| --- | --- | --- | --- | --- |
| Fab fragment of a high-affinity variant of clone 2.1 (2.1^hi) (Fab, V domains shown) VH: EVQLQESGPSLVKPSQTLSLTCSVTGASITSGYWNWIRKFPGNRLEYMGYISYSGGTYYNPSLKSRISITRDTSKNQYYLQLNSVTTEDTATYYCARDFDVWGAGTTVTVSS VL: DIVMTQSQKFMSTSVGDRVSVTCKASQNVGTNVGWFQQKPGQSPKSLIYSASYRYSGVPDRFTGSGSGTDFTLTISNVQSEDLAEYFCHQYYSYPLTFGSGTKLEIK | 0.062 |  |  |  |
| clone 2.1 Fab CB_07 (clonal burst) (Fab, V domains shown) VH: EVQLQESGPSLVKPSQTLSLTCSVTGDSITSGYWNWIRKFPGNKLEYMGYISYSGSTYYNPSLKSRISITRDTSKNQYYLQLNSVTTEDTATYYCGRDFDVWGAGTTVTVSS VL: DIVMTQSQKFMSTSVGDRVSVTCKASQNVGTNVAWYQQKPGQSPKALIYSASYRYSGVPDRFTGSGSGTDFTLTISNVQSEDLAEYFCQQYKSYPLTFGSGTKLEIK |  | 1.34 | 0.000349 | 261000 |
| clone 2.1 Fab L_11 (affinity ladder) (Fab, V domains shown) VH: EVQLQESGPSLVKPSQTLSLTCSVTGDSITSGYWNWIRKFPGNKLEYMGYISYSGSTYYNPSLKSRISITRDTSTNQYYLQLNSVTTEDTATYFCARDFDVWGAGTTVTVSS VL: DIVMTQSQKFMSTSVGDRVSVTCKASQNVGTNVGWYQQKPGQSPKALIYSASYRYSGVPDRFTGSGSGTDFTLTISNVQSEDLAEYFCQQYNSYPLTFGSGTKLEIK |  | 1.83 | 0.00011 | 59800 |
| clone 2.1 Fab L_10 (affinity ladder) (Fab, V domains shown) VH: EVQLQESGPGLVKPSQTLSLTCSVTGDSITSGYWNWIRKFPGNKLEYMGYISYSGSTYYNPSLKSRVSITRDTSKNQHYLQLNSVTTEDTATYYCGRDFDVWGAGTTVTVSS VL: DIVMTQSQKFMSTSVGDRVSVTCKASQNVGTNVAWYQQKPGQSPKALIYSASYRYSGVPDRFTGSGSGTDFTLTISNVQSEDLAEYFCQQYKSYPLTFGSGTKLEIK |  | 1.21 | 0.000462 | 381000 |
| clone 2.1 Fab CB_10 (clonal burst) (Fab, V domains shown) VH: EVQLQESGPSLVKPSQTLSLTCSVTGDSITSGYWNWIRKFPGNKLEYMGYISYSGSTYYNPSLKSRISITRDTSKNQYYLQLNSVTTEDTATYYCGRDFDVWGAGTTVTVSS VL: DIVMTQSQKFMSTSVGDRVSVTCKASQNVGTNVGWYQQKPGQSPKALIYSASYRYSGVPDRFTGSGSGTDFTLTISNVQSEDLAEYFCQQYNRYPLTFGSGTKLEIK |  | 0.127 | 3.73e-05 | 294000 |
| clone 2.1 Fab CB_05 (clonal burst) (Fab, V domains shown) VH: EVQLQESGPSLVKPSQTLSLTCSVTGDSITSGYWNWIRKFPGNKLEYMGYISYSGSTYYNPSLKSRISITRDTSKNQYYLQLNSVTTEDTATYYCGRDFDVWGAGTTVTVSS VL: DIVMTQSQKFMSTSVGDRVSVTCKASQNVGTNVAWYQQKPGQSPKALIYSASYRYSGVPDRFTGSGSGTDFTLTISNVQSEDLAEYFCQQYNSYPLTFGSGTKLEIK |  | 6.76 | 0.00149 | 221000 |

The next lines start with the values.

| Kd (chicken IgY (chicken) [1]) [nM] | Kd (chicken IgY (chicken) [2]) [nM] | koff (chicken IgY (chicken) [2]) [s⁻¹] | kon (chicken IgY (chicken) [2]) [M⁻¹ s⁻¹] | Binder |
| --- | --- | --- | --- | --- |
|  | 2.84 | 0.000359 | 126000 | clone 2.1 Fab TA_1 (Fab, V domains shown) VH: EVQLQESGPSLVKPSQTLSLTCSVTGDSITSGYWNWIRKFPGNRLEYMGYISFSGSTYYNPSLKSRISITRDTSKNQYYLQLNSVTTEDTATYYCARDFDVWGAGTTVTVSS VL: DIVMTQSQKFMSTSVGDRVSVTCKASQNVGTNVGWYQQKPGQSPKALIYSASYRYSGVPDRFTGSGSGTDFTLTISNVQSEDLAEYFCQQYNSYPLTFGSGTKLEIK |
|  | 54 | 0.00767 | 142000 | clone 2.1 Fab TA_3 (Fab, V domains shown) VH: EVQLQESGPSLVKPSQTLSLTCSVTGDSITSGYWNWIRKFPGNKLEYMGYISYSGSTYYNPSLKSRISITRDTSKNQYYLQLNSVTTEDTATYYCARDFDVWGAGTTVTVSS VL: DIVMTQSQKFMSTSVGDRVSVTCKASQNVGTNVVWYQQKPGQSPKALIYSASYRYSGVPDRFTGSGSGTDFTLTISNVQSEDLAEYFCQQYNSYPLTFGSGTKLEIK |
|  | 4.21 | 0.000383 | 90900 | clone 2.1 Fab TA_2 (Fab, V domains shown) VH: EVQLQESGPSLVKPSQTLSLTCSVTGDSITSGYWNWIRKFPGNKLEYMGYISYSGSTYYNPSLKSRISITRDTSKNQYYLQLNSVTTEDTATYYCARDFDVWGAGTTVTVSS VL: DIVMTQSQKFMSTSVGDRVSVTCKASQNVGTNVGWYQQKPGQSPKALIYSASYRYSGVPDRFTGSGSGTDFTLTISNVQSEDLAEYFCQQYNSYPLTFGSGTKLEIK |
|  | 71.1 | 0.00792 | 111000 | clone 2.1 Fab TA_4 (Fab, V domains shown) VH: EVQLQESGPSLVKPSQTLSLTCSVTGDSITSGYWNWIRKFPGNKLEYMGYISYSGSTYYNPSLKSRISITRDTSKNQYYLQLNSVTTEDTATYYCARDFDVWGAGTTVTVSS VL: DIVMTQSQKFMSTSVGDRVSVTCKASQNVGTNVVWYQQKPGQSPKALIYSASYRYSGVPDRFTGSGSGTDFTLTISNVQSEDLAEYFCQQYDSYPLTFGSGTKLEIK |
